Experimental data as given in patent US20250011418A1 (ZIELBIO, published 2025).

Molecular target: T1, Sec8-His (section 8 (Sec8), an antigenic region of CSP-1, tagged with a polyhistidine (His) tag)
T1 construct: also called Sec8-His antigen
T1 chain: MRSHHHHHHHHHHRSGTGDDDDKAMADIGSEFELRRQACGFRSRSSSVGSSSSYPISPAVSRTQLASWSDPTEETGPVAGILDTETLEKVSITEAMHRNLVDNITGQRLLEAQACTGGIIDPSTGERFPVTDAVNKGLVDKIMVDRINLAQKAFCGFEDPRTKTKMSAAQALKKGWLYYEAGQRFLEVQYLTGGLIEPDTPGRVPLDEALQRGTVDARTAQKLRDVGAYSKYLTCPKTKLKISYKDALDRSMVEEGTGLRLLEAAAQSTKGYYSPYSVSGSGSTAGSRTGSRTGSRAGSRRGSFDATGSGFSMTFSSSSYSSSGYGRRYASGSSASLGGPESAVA
Assay: BLI (Octet), single shot: antibody on anti-human IgG tips, 24 nM Sec8-His
Description: After humanization, the antibodies were tested for their capability to bind to an antigenic region of CSP-1 called section 8 (Sec8). Antigen binding was assessed by single-shot Octet analysis. Antibodies were loaded onto anti-human IgG tips, and the loaded tips were dipped into wells containing the Sec8-His antigen. Scouting experiments were used to determine ideal conditions for loading (10 minute incubation in 1 μg/mL IgG) and antigen binding (5 minute incubation in 24 nM Sec8-His, followed by a 5 minute dissociation step in buffer). Two negative controls were included with each experiment. First, a tip was loaded with irrelevant IgG dipped into 24 nM Sec8-His to control for non-specific interactions between the tip and the antigen. Next, tips loaded with humanized 1D7 variants were dipped into 24 nM GST-His to control for off-target binding of the antibody (a significant risk if a given variant is destabilized and/or exposes significant hydrophobic surface). The data from the irrelevant IgG control were subtracted from the data obtained with the […]-loaded tips. The mean and standard deviation of the signal change values for the GST-His control wells were used to calculate a threshold for positive binding (mean+3 standard deviations of the GST-His signal). Variants that were below this threshold are considered to have no specific binding to Sec8.

B1: humanized anti-CSP-1 antibody, Antibody Number 16 (Table 1) (antibody, human IgG1, V domains shown)
VH: EVQLVESGGDLVKPGGSLKLSCAASGFTFSRYGMSWVRQTPDKRLEWVATISIGGTYTYYPDSMKGRFTISRDNAKNTLYLQMSSLKSEDTAMYYCARRGYGNYSYYGMDYWGQGTSVTVSS
VL: DIVMTQAAFSNPVTLGTSASISCRSSKSLLHSNGITYLYWYLQKPGQSPQLLIYQMSNLASGVPDRFSSSGSGTDFTLRISRVEAEDVGVYYCAQNLELPLTFGAGTKLELK
notes: also called Antibody 16
binding result: binds

B2: humanized anti-CSP-1 antibody, Antibody Number 21 (Table 1) (antibody, human IgG1, V domains shown)
VH: EVQLVESGGDLVKPGGSLKLSCAASGFTFSRYGMSWVRQTPDKRLEWVATISIGGTYTYYPDSMKGRFTISRDNAKNTLYLQMSSLKSEDTAMYYCARRGYGNYSYYGVDYWGQGTSVTVSS
VL: DIVMTQAAFSNPVTLGTSASISCRSSKSLLHSNGITYLYWYLQKPGQSPQLLIYQMSNLASGVPDRFSSSGSGTDFTLRISRVEAEDVGVYYCAQNLELPLTFGAGTKLELK
notes: also called Antibody 21
binding result: binds

B3: humanized anti-CSP-1 antibody, Antibody Number 20 (Table 1) (antibody, human IgG1, V domains shown)
VH: EVQLVESGGDLVKPGGSLKLSCAASGFTFSRYGMSWVRQTPDKRLEWVATISIGGTYTYYPDSMKGRFTISRDNAKNTLYLQMSSLKSEDTAMYYCARRGYGNYSYYGIDYWGQGTSVTVSS
VL: DIVMTQAAFSNPVTLGTSASISCRSSKSLLHSNGITYLYWYLQKPGQSPQLLIYQMSNLASGVPDRFSSSGSGTDFTLRISRVEAEDVGVYYCAQNLELPLTFGAGTKLELK
notes: also called Antibody 20
binding result: binds

B4: humanized anti-CSP-1 antibody, Antibody Number 19 (Table 1) (antibody, human IgG1, V domains shown)
VH: EVQLVESGGDLVKPGGSLKLSCAASGFTFSRYGMSWVRQTPDKRLEWVATISIGGTYTYYPDSMKGRFTISRDNAKNTLYLQMSSLKSEDTAMYYCARRGYGNYSYYGLDYWGQGTSVTVSS
VL: DIVMTQAAFSNPVTLGTSASISCRSSKSLLHSNGITYLYWYLQKPGQSPQLLIYQMSNLASGVPDRFSSSGSGTDFTLRISRVEAEDVGVYYCAQNLELPLTFGAGTKLELK
notes: also called Antibody 19
binding result: binds

B5: humanized anti-CSP-1 antibody, Antibody Number 18 (Table 1) (antibody, human IgG1, V domains shown)
VH: EVQLVESGGDLVKPGGSLKLSCAASGFTFSRYGMSWVRQTPDKRLEWVATISIGGTYTYYPDSMKGRFTISRDNAKNTLYLQMSSLKSEDTAMYYCARRGYGQYSYYGMDYWGQGTSVTVSS
VL: DIVMTQAAFSNPVTLGTSASISCRSSKSLLHSNGITYLYWYLQKPGQSPQLLIYQMSNLASGVPDRFSSSGSGTDFTLRISRVEAEDVGVYYCAQNLELPLTFGAGTKLELK
notes: also called Antibody 18
binding result: binds

B6: humanized anti-CSP-1 antibody, Antibody Number 17 (Table 1) (antibody, human IgG1, V domains shown)
VH: EVQLVESGGDLVKPGGSLKLSCAASGFTFSRYGMSWVRQTPDKRLEWVATISIGGTYTYYPDSMKGRFTISRDNAKNTLYLQMSSLKSEDTAMYYCARRGYGSYSYYGMDYWGQGTSVTVSS
VL: DIVMTQAAFSNPVTLGTSASISCRSSKSLLHSNGITYLYWYLQKPGQSPQLLIYQMSNLASGVPDRFSSSGSGTDFTLRISRVEAEDVGVYYCAQNLELPLTFGAGTKLELK
notes: also called Antibody 17
binding result: binds

B7: humanized anti-CSP-1 antibody, Antibody Number 2 (Table 1) (antibody, human IgG1, V domains shown)
VH: QIQLVQSGPELKKPGETVKISCKASGYTFTDYSMHWVKQAPGKGLKWMGWIQTETGEPTYADDFKGRFAFSLETSASTAYLQINNLKNEDTATYFCAPGGFAYWGQGTLVTVSA
VL: DIVMTQAAPSVPVTPGESVSISCRSSKSLLHSNGNTYLYWFLQRPGQSPQLLIYRMSNLASGVPDRFSGSGSGTAFTLRISRVEAEDVGVYYCMQHLEYPLTFGAGTKLELK
notes: also called Antibody 2
binding result: binds

B8: humanized anti-CSP-1 antibody, Antibody Number 15 (Table 1) (antibody, human IgG1, V domains shown)
VH: QIQLVQSGPGLKQPGGSVRISCAASGYTFTDYSMHWVKQAPGKGLKWMGWINTETGEPTYADDFKGRFTFSLDTSKSTAYLQINSLRAEDTATYFCAPGGFAYWGQGTLVTVSS
VL: DIVMTQSAPSLPVTPGQSVSISCRSSKSLLHSNGNTYLYWFLQKPGQSPQLLIYRMSNRASGVPDRFSGSGSGTDFTLKISRVEAEDVGVYYCMQHLEYPLTFGQGTKLEIK
notes: also called Antibody 15
binding result: binds

B9: humanized anti-CSP-1 antibody, Antibody Number 11 (Table 1) (antibody, human IgG1, V domains shown)
VH: QIQLVQSGPEVKKPGASVKISCKASGYTFTDYSMHWVKQAPGQGLKWMGWINTETGEPTYADDFKGRFTFTLDTSTSTAYLEISSLRSEDTATYFCAPGGFAYWGQGTLVTVSS
VL: DIVMTQSAPSVPVTPGQSVSISCRSSKSLLHSNGNTYLYWFLQKPGQSPQLLIYRMSNRASGVPDRFSGSGSGTDFTLKISRVEAEDVGVYYCMQHLEYPLTFGQGTKLEIK
notes: also called Antibody 11
binding result: binds

B10: humanized anti-CSP-1 antibody, Antibody Number 3 (Table 1) (antibody, human IgG1, V domains shown)
VH: QIQLVQSGPELKKPGETVKISCKASGYTFTDYSMHWVKQAPGKGLKWMGWINTETGEPTYADDFKGRFAFSLETSASTAYLQINNLKNEDTATYFCAPGGFAYWGQGTLVTVSA
VL: DIVMTQAAPSVPVTPGESVSISCRSSKSLLHSSGNTYLYWFLQRPGQSPQLLIYRMSNLASGVPDRFSGSGSGTAFTLRISRVEAEDVGVYYCMQHLEYPLTFGAGTKLELK
notes: also called Antibody 3
binding result: binds

B11: humanized anti-CSP-1 antibody, Antibody Number 7 (Table 1) (antibody, human IgG1, V domains shown)
VH: QIQLVQSGPEVKKPGASVKISCKASGYTFTDYSMHWVKQAPGQGLKWMGWINTETGEPTYADDFKGRFTFTLDTSTSTAYLEISSLRSEDTATYFCAPGGFAYWGQGTLVTVSS
VL: DIVMTQAAPSVPVTPGESVSISCRSSKSLLHSNGNTYLYWFLQRPGQSPQLLIYRMSNLASGVPDRFSGSGSGTAFTLRISRVEAEDVGVYYCMQHLEYPLTFGAGTKLELK
notes: also called Antibody 7
binding result: binds

B12: humanized anti-CSP-1 antibody, Antibody Number 9 (Table 1) (antibody, human IgG1, V domains shown)
VH: QIQLVQSGPELKKPGETVKISCKASGYTFTDYSMHWVKQAPGKGLKWMGWINTETGEPTYADDFKGRFAFSLETSASTAYLQINNLKNEDTATYFCAPGGFAYWGQGTLVTVSA
VL: DIVMTQSAPSVPVTPGQSVSISCRSSKSLLHSNGNTYLYWFLQKPGQSPQLLIYRMSNRASGVPDRFSGSGSGTDFTLKISRVEAEDVGVYYCMQHLEYPLTFGQGTKLEIK
notes: also called Antibody 9
binding result: binds

B13: humanized anti-CSP-1 antibody, Antibody Number 10 (Table 1) (antibody, human IgG1, V domains shown)
VH: QIQLVQSGPELKKPGETVKISCKASGYTFTDYSMHWVKQAPGKGLKWMGWINTETGEPTYADDFKGRFAFSLETSASTAYLQINNLKNEDTATYFCAPGGFAYWGQGTLVTVSA
VL: DIVMTQSAPSLPVTPGQSVSISCRSSKSLLHSNGNTYLYWFLQKPGQSPQLLIYRMSNRASGVPDRFSGSGSGTDFTLKISRVEAEDVGVYYCMQHLEYPLTFGQGTKLEIK
notes: also called Antibody 10
binding result: binds

B14: humanized anti-CSP-1 antibody, Antibody Number 5 (Table 1) (antibody, human IgG1, V domains shown)
VH: QIQLVQSGPELKKPGETVKISCKASGYTFTDYSMHWVKQAPGKGLKWMGWINTETGEPTYADDFKGRFAFSLETSASTAYLQINNLKNEDTATYFCAPGGFAYWGQGTLVTVSA
VL: DIVMTQAAPSVPVTPGESVSISCRSSKSLLHSNGNTYLYWFLQRPGQSPQLLIYRLSNLASGVPDRFSGSGSGTAFTLRISRVEAEDVGVYYCMQHLEYPLTFGAGTKLELK
notes: also called Antibody 5
binding result: binds

B15: humanized anti-CSP-1 antibody, Antibody Number 6 (Table 1) (antibody, human IgG1, V domains shown)
VH: QIQLVQSGPELKKPGETVKISCKASGYTFTDYSMHWVKQAPGKGLKWMGWINTETGEPTYADDFKGRFAFSLETSASTAYLQINNLKNEDTATYFCAPGGFAYWGQGTLVTVSA
VL: DIVMTQAAPSVPVTPGESVSISCRSSKSLLHSNGNTYLYWFLQRPGQSPQLLIYRISNLASGVPDRFSGSGSGTAFTLRISRVEAEDVGVYYCMQHLEYPLTFGAGTKLELK
notes: also called Antibody 6
binding result: binds

B16: humanized anti-CSP-1 antibody, Antibody Number 4 (Table 1) (antibody, human IgG1, V domains shown)
VH: QIQLVQSGPELKKPGETVKISCKASGYTFTDYSMHWVKQAPGKGLKWMGWINTETGEPTYADDFKGRFAFSLETSASTAYLQINNLKNEDTATYFCAPGGFAYWGQGTLVTVSA
VL: DIVMTQAAPSVPVTPGESVSISCRSSKSLLHSNGNTYLYWFLQRPGQSPQLLIYRVSNLASGVPDRFSGSGSGTAFTLRISRVEAEDVGVYYCMQHLEYPLTFGAGTKLELK
notes: also called Antibody 4
binding result: binds

B17: humanized anti-CSP-1 antibody, Antibody Number 13 (Table 1) (antibody, human IgG1, V domains shown)
VH: QIQLVQSGPEVKKPGASVKISCKASGYTFTDYSMHWVRQAPGQGLEWMGWINTETGEPTYAQKFQGRFTFTLDTSTSTAYLEISSLRSEDTAVYFCAPGGFAYWGQGTLVTVSS
VL: DIVMTQSAPSVPVTPGQSVSISCRSSKSLLHSNGNTYLYWFLQKPGQSPQLLIYRMSNRASGVPDRFSGSGSGTDFTLKISRVEAEDVGVYYCMQHLEYPLTFGQGTKLEIK
notes: also called Antibody 13
binding result: binds

B18: humanized anti-CSP-1 antibody, Antibody Number 12 (Table 1) (antibody, human IgG1, V domains shown)
VH: QIQLVQSGPEVKKPGASVKISCKASGYTFTDYSMHWVKQAPGQGLKWMGWINTETGEPTYADDFKGRFTFTLDTSTSTAYLEISSLRSEDTATYFCAPGGFAYWGQGTLVTVSS
VL: DIVMTQSAPSLPVTPGQSVSISCRSSKSLLHSNGNTYLYWFLQKPGQSPQLLIYRMSNRASGVPDRFSGSGSGTDFTLKISRVEAEDVGVYYCMQHLEYPLTFGQGTKLEIK
notes: also called Antibody 12
binding result: binds

B19: humanized anti-CSP-1 antibody, Antibody Number 14 (Table 1) (antibody, human IgG1, V domains shown)
VH: QIQLVQSGPGLKQPGGSVRISCAASGYTFTDYSMHWVKQAPGKGLKWMGWINTETGEPTYADDFKGRFTFSLDTSKSTAYLQINSLRAEDTATYFCAPGGFAYWGQGTLVTVSS
VL: DIVMTQSAPSVPVTPGQSVSISCRSSKSLLHSNGNTYLYWFLQKPGQSPQLLIYRMSNRASGVPDRFSGSGSGTDFTLKISRVEAEDVGVYYCMQHLEYPLTFGQGTKLEIK
notes: also called Antibody 14
binding result: binds
